Results: patent US20030144205A1

Target: SV40 large T antigen (pGADT7-SV40 large T antigen) (SV40) (UniProt P03070)
Test: cell-based or functional assay

Chain of SV40 large T antigen (pGADT7-SV40 large T antigen) (SV40) (P03070 86-708 limits assumed): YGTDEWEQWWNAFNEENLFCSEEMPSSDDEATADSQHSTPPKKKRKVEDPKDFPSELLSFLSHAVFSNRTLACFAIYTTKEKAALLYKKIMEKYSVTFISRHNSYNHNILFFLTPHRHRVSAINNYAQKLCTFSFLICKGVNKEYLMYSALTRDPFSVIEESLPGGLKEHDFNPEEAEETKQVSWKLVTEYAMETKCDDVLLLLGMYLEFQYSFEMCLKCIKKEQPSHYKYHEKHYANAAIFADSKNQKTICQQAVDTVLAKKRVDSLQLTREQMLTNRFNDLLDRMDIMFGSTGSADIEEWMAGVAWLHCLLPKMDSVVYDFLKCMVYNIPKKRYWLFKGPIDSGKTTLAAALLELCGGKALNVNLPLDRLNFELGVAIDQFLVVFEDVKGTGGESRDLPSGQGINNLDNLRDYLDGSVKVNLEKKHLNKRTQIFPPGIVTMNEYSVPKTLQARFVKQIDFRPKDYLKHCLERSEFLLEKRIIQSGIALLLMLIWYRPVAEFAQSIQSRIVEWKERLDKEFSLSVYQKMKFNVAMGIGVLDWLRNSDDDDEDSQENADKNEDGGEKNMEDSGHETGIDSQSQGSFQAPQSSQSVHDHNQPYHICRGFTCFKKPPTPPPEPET

murine p53 (pGBKT7-murine p53) (from UniProt P02340 72-390)
fold increase in fluorescence, an indication of yeast growth in selection media (Fluorescence(t40)/Fluorescence(t0)): > 5 fold
